# Reference: patent publication US20190211098A1 (Genentech, published 2019)
# T1: Full length myc-DDK tagged PIANP, expressed on transfected 293T cells (human, UniProt Q8IYJ0 32-282)
# T1 construct: Bought construct (Origene Cat. No. RC207868); also called myc-PIANP; C12orf53 (human); not shown: myc-DDK tag of the Origene construct RC207868
# T1 sequence: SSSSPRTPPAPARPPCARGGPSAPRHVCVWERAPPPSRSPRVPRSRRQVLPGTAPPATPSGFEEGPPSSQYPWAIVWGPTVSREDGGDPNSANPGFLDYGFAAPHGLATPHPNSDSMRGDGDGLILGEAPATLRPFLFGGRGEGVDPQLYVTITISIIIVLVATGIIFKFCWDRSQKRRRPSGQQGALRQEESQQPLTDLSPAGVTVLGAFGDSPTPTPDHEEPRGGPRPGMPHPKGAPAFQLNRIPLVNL
# B1: NPDC1 extracellular domain (1-190 aa) fused to murine IgG2a Fc (Fc fusion)
# chain: GHPDVAACPGSLDCALKRRARCPPGAHACGPCLQPFQEDQQGLCVPRMRRPPGGGRPQPRLEDEIDFLAQELARKESGHSTPPLPKDRQRLPEPATLGFSARGQGLELGLPSTPGTPTPTPHTSLGSPVSSDPVHMSPLEPRGGQGDGLALVLILA
# notes: also called NPDC1-mFc; NPDC1-mFC; not shown: Fc region of murine IgG2a, C-terminal tag
# B2: NPDC1-His (ligand)
# chain: GHPDVAACPGSLDCALKRRARCPPGAHACGPCLQPFQEDQQGLCVPRMRRPPGGGRPQPRLEDEIDFLAQELARKESGHSTPPLPKDRQRLPEPATLGFSARGQGLELGLPSTPGTPTPTPHTSLGSPVSSDPVHMSPLEPRGGQGD
# notes: not shown: His tag
# B3: PILRA R78 variant extracellular domain fused to murine IgG2a Fc (Fc fusion)
# chain: QPSGSTGSGPSYLYGVTQPKHLSASMGGSVEIPFSFYYPWELATAPDVRISWRRGHFHRQSFYSTRPPSIHKDYVNRLFLNWTEGQKSGFLRISNLQKQDQSVYFCRVELDTRSSGRQQWQSIEGTKLSITQAVTTTTQRPSSMTTTWRLSSTTTTTGLRVTQGKRRSDSWHISLET
# notes: also called PILRA-mFc R78; PILRA-Fc R78; not shown: Fc region of murine IgG2a, C-terminal tag
# Experiments:
# Murine PILRA-His = target: T2, Murine PILRA-His (mouse, UniProt Q2YFS3 32-198); assay: array SPR imaging, sandwich format: mAb 2 on the chip, murine PILRA-His 100 nM, then Fc-tagged ligand at 10 ug/ml; response normalised to the PILRA level
# T2 construct: not shown: His tag
# [1] = target: T3, Biotinylated mouse PILRA ECD (mouse, UniProt Q2YFS3 32-198, biotinylated (sites not given)); assay: competitive ELISA: biotinylated mouse PILRA ECD on Neutravidin plate, antibody titrated together with a fixed amount of mouse C12orf53-Fc, bound ligand-Fc detected with anti-human IgG-Fc-HRP
# T3 construct: Captured on Neutravidin plates; also called mPILRA; recombinant PILRA ECD
# [2] = target: T3, Biotinylated mouse PILRA ECD; assay: competitive ELISA: biotinylated mouse PILRA ECD on Neutravidin plate, antibody titrated together with a fixed amount of mouse CD99-Fc, bound ligand-Fc detected with anti-human IgG-Fc-HRP
# Method: The PILRA ECD-based competitive ELISA was performed as follows. […] Plates were blocked with 0.5% bovine serum albumin, 15 ppm Proclin 300 (Supelco, Bellefonte, Pa.) in PBS (80 μl/well) at room temperature for 1 h and washed. Biotinylated mouse PILRA ECD at 0.25 μg/ml (Genentech, Inc.) in 0.5% bovine serum albumin, 0.05% polysorbate 20, 15 ppm Proclin 300 in PBS, pH 7.4 (assay buffer) was added to the plates. After 1.5 hrs incubation, plates were washed. […] The mixture of the serially diluted antibody and ligand-Fc was added to the plates at 25 μl/well. After a 2 hrs incubation, plates were washed. […] After a 1 hr incubation, plates were washed and the substrate 3,3′,5,5′-tetramethyl benzidine (Moss Inc., TMBE-1000) was added. The reaction was stopped by adding 1 M phosphoric acid. The absorbance was read at 450 nm using a microplate reader (Multiskan Ascent, Thermo Scientific, Waltham, Mass.). The titration curves were plotted using KaleidaGraph (Synerg Software, Reading, Pa.).
# [3] = target: T3, Biotinylated mouse PILRA ECD; assay: competitive ELISA: biotinylated mouse PILRA ECD on Neutravidin plate, antibody titrated together with a fixed amount of mouse CD99-Fc
# [4] = target: T4, Mouse PILRA extracellular domain fused to human CD3 zeta chain transmembrane and intracellular domains, on … (mouse; human); assay: cell-based competitive ELISA: 293-PILRA stable cells, antibody titrated together with a fixed amount of mouse CD99-Fc
# T4 construct: domain: transmembrane and intracellular domains; also called cell surface PILRA
# [5] = target: T5, G80 variant of PILRA, full-length, expressed on transfected 293T cells (human, UniProt Q9UKJ1 20-303); assay: flow cytometry, soluble NPDC1-mFc 50 ug/ml on PILRA-variant-transfected 293T cells
# T5 construct: Point mutation put into the full-length G78 construct by site-directed mutagenesis; also called S80 substituted to glycine
# Method: (§1) Relative PILRA-ligand binding to PILRA variant transfected cells was performed as follows. […] Double positive cells were gated on the G78 sample and then the gates were overlaid on subsequent samples to maintain the same cell population throughout the experiment.
# (§2) Cells were washed and NPDC1 and PILRA cell surface staining was assessed by flow cytometry using anti-mIgG2a-FITC and anti-PILRA antibodies, respectively. […] Binding of the G78 variant of PILRA to NPDC1 was considered 100%.
# [6] = target: T6, A76 variant of PILRA, full-length, expressed on transfected 293T cells (human, UniProt Q9UKJ1 20-303); assay: as above
# T6 construct: Point mutation put into the full-length G78 construct by site-directed mutagenesis; also called F76 substituted to alanine
# Method: as §1, §2
# [7] = target: T7, R78 variant of PILRA (AD-protective), full-length, on cells (human, UniProt Q9UKJ1 20-303); assay: as above
# T7 construct: also called PILRA R78; rs1859788 variant
# Method: as §1, §2
# [8] = target: T8, A72 variant of PILRA, full-length, expressed on transfected 293T cells (human, UniProt Q9UKJ1 20-303); assay: as above
# T8 construct: Point mutation put into the full-length G78 construct by site-directed mutagenesis; also called R72 substituted to alanine
# Method: as §1, §2
# [9] = target: T9, A141 variant of PILRA (S141A), full-length, expressed on transfected 293T cells (human, UniProt Q9UKJ1 20-303); assay: flow cytometry, soluble NPDC1-mIgG2a on PILRA-variant-transfected 293T cells
# T9 construct: Point mutation put into the full-length G78 construct by site-directed mutagenesis
# Method: as §1
# [10] = target: T10, A140 variant of PILRA (Q140A), full-length, expressed on transfected 293T cells (human, UniProt Q9UKJ1 20-303); assay: as above
# T10 construct: Point mutation put into the full-length G78 construct by site-directed mutagenesis
# Method: as §1
# [11] = target: T7, R78 variant of PILRA (AD-protective), …; assay: as above
# Method: as §1
# [12] = target: B3; assay: SPR, NPDC1-His binding to PILRA variant
# [13] = target: T11, HSV-1 glycoprotein B, full length, expressed on transfected 293T cells (human herpes simplex virus type-1, UniProt P06437 31-904); assay: flow cytometry: soluble PILRA-mFc variant (50 ug/ml) on HSV-1 gB-transfected 293T cells, FITC anti-mouse IgG2a; MFI as % of G78 (= 100 %)
# T11 construct: Construct cloned from EF157316 (strain KOSc); also called HSV-1 gB; human herpesvirus 1 strain KOSc glycoprotein B (EF157316)
# NPDC1-His [14] = target: B2; assay: SPR, NPDC1-His binding to PILRA variant
# [15] = target: T1, Full length myc-DDK tagged PIANP, …; assay: flow cytometry: soluble PILRA-mFc variant (50 ug/ml) on myc-PIANP-transfected 293T cells, FITC anti-mouse IgG2a; MFI as % of G78 (= 100 %)
# Method: The percentage of mean fluorescence intensity (MFI) of PILRA-mFC binding on ligand-transfected cells relative to the G78 variant of PILRA binding for each experiment was calculated.
# as §2
# NPDC1-His [16] = target: B2; assay: SPR, NPDC1-His binding to PILRA variant; remark: listed apart in the source
# [17] = target: B1; assay: SPR (ProteOn XPR36): PILRA-mFc A140 amine-coupled to a GLC chip, 100 nM NPDC1-mFc injected
# Method: PILRA variant ligand binding Surface Plasmon Resonance (SPR) was performed as follows.
# Next, the interaction of PILRA variants and ligands in vitro using surface plasmon resonance (SPR) was investigated.
# [18] = target: T4, Mouse PILRA extracellular domain fused …; assay: cell-based competitive ELISA: 293-PILRA stable cells, antibody titrated together with a fixed amount of mouse CD99-Fc, bound ligand-Fc detected with anti-human IgG-Fc-HRP
# Method: After plates were centrifuged at 1200 rpm for 5 min at 4° C., the supernatant was decanted and the mixture of the serially diluted antibody and the ligand-Fc was added. Plates were incubated at 4° C. for 1 h with gentle shaking. Cells were washed with ice-cold 0.1% BSA in PBS, pH 7.4 (wash buffer) by centrifuging the plate at 1200 rpm for 5 min at 4° C. and the cells were resuspended in 200 μl wash buffer. […] Plates were incubated at 4° C. for 1 hr with gentle shaking. Cells were washed with ice-cold wash buffer 4 times. Cells were resuspended in 100 μl of the substrate 3,3′,5,5′-tetramethyl benzidine (Moss Inc., TMBE-1000) and plates were incubated at room temperature for approximately 20 min for color development. The reaction was stopped by adding 1 M phosphoric acid. The absorbance was read at 450 nm using a microplate reader (Multiskan Ascent, Thermo Scientific, Waltham, Mass.). The titration curves were plotted using KaleidaGraph (Synerg Software, Reading, Pa.).
# T3 sequence (Q2YFS3 32-198 limits assumed): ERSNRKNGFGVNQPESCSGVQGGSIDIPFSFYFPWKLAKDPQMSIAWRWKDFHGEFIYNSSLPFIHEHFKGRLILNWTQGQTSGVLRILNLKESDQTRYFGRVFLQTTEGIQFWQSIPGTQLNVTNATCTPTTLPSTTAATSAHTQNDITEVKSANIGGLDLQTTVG
# T4 sequence (P20963 other isoform, or with tags, fused parts or gaps limits assumed): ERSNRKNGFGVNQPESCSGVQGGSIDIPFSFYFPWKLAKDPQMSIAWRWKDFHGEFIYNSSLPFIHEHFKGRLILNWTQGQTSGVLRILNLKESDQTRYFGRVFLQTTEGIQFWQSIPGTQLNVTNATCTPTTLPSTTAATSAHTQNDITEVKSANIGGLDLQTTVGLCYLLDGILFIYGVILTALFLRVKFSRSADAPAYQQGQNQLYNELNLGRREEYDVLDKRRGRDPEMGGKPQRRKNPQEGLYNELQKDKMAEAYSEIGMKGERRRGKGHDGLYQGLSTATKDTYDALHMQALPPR
# T2 sequence (Q2YFS3 32-198 limits assumed): as the sequence (Q2YFS3 32-198 limits assumed) above
binder,measurement,setting,value
"Mouse PILRA ligand C12orf53 fused to human IgG1 Fc (Fc fusion, also called C12orf53-Fc; mouse C12orf53-Fc; not shown: human IgG1 Fc) SSHRSPPAPARPPCVRGGPSAPRHVCVWERAPPPSRSPRVPRSRRQVVPGTAPPATPSGFEEGPPSSQYPWAIVWGPTVSREDGGDPNSVNPGFLPLDYGFAAPHGLATPHPNSDSMRDDGDGLILGETPATLRPFLFGGRGEGVDP",binding result,Murine PILRA-His,binds
"Anti-mouse PILRA antibody 12C6.9 (antibody, mouse IgG2a, kappa, V domains shown) VH: QIQLVQSGPELKKPGETVKISCKASGYTFTTYGMSWMKQAPGKGLKWMGWINTYSGVPTYADDFKGRFAFSLETSASTAYLQISNLKDEDTARYFCARRDYGSSQWYFDVWSTGTTVTVSS VL: DIVMTQSPKFMSISVGDRVSVTCKASQNVGTKVAWYQQKPGQSPKELIYSASYRFSGVPDRFTGSGSGTDFTLTISSVQSEDLAEYFCQQYNTYPLTFGAGTKLEIKR",IC50 (read off the curve),[1],~3 nM
same,IC50 (read off the curve),[2],~4 nM
"Isotype control antibody 12D4 (antibody, mouse IgG2a, kappa, V domains shown) VH: QVQLQQSGAELVTPGASVKLSCKTSGHTFTSYWMNWVNQKPGQGLEWIGWIYGGSGNTKYNQKFQGKATLTVDTSSSTAYMELRSLTSDDSAVYFCASGTNFFDYWGQGTMVTVSS VL: DIVMTQSHKFMSTSVGDRVSITCKASQDVSTAVAWYQQKPGQSPKLLIYSASYRYTGVPDRFTGSGSGTDFTFTISSVQAEDLAVYYCQQHYSTPLTFGAGTKLELKR",binding result,[3],no binding (tested: 200 nM)
same,binding result,[4],no binding (tested: 200 nM)
B1,% of G78 variant binding,[5],~60 % of G78 variant
same,% of G78 variant binding,[6],~20 % of G78 variant
same,% of G78 variant binding,[7],~35 % of G78 variant
same,% of G78 variant binding,[8],~20 % of G78 variant
same,binding result,Murine PILRA-His,binds
same,% of G78 binding,[9],117 % of G78
same,% of G78 binding,[10],22 % of G78
same,% of G78 binding,[11],44 % of G78
B2,Kd,[12],76.5 nM
same,kon,[12],6800 M⁻¹ s⁻¹
"PILRA G80 variant extracellular domain fused to murine IgG2a Fc (Fc fusion, also called PILRA-mFc G80; not shown: Fc region of murine IgG2a, C-terminal tag) QPSGSTGSGPSYLYGVTQPKHLSASMGGSVEIPFSFYYPWELATAPDVRISWRRGHFHGQGFYSTRPPSIHKDYVNRLFLNWTEGQKSGFLRISNLQKQDQSVYFCRVELDTRSSGRQQWQSIEGTKLSITQAVTTTTQRPSSMTTTWRLSSTTTTTGLRVTQGKRRSDSWHISLET",binding result,[13],binds
same,Kd,NPDC1-His [14],30 nM
same,kon,NPDC1-His [14],17000 M⁻¹ s⁻¹
same,binding result,[15],binds
B3,binding result,[13],binds
same,fold lower affinity than the G78 variant,NPDC1-His [16],~4.5 fold
same,fold lower kon than the G78 variant,NPDC1-His [16],~3 fold
same,binding result,[15],binds
"PILRA A140 variant (Q140A) extracellular domain fused to murine IgG2a Fc (Fc fusion, also called PILRA-mFc A140; PILRA-Fc A140; not shown: Fc region of murine IgG2a, C-terminal tag) QPSGSTGSGPSYLYGVTQPKHLSASMGGSVEIPFSFYYPWELATAPDVRISWRRGHFHGQSFYSTRPPSIHKDYVNRLFLNWTEGQKSGFLRISNLQKQDQSVYFCRVELDTRSSGRQQWASIEGTKLSITQAVTTTTQRPSSMTTTWRLSSTTTTTGLRVTQGKRRSDSWHISLET",binding result,[17],binds
"Anti-mouse PILRA antibody 12H1.8 (antibody, mouse IgG2a, kappa, V domains shown) VH: QVQLQQSGAELVGPGTSVKISCQASGYTFTNYWIGWAKQRPGHGLEWIGDIYPGGGYTNYNKKFKGKATLTADKSSSTAYMQFSSLTSEDSAIYYCSRSRGHGSNFYWYFDVWGTGTTVTVSS VL: DIVMTQSPKFMSTSVGDRVNITCRASQDVNTAVAWFQQKPGRSPKLLIYSASYRYTGPDHFTGSGSGTDFTFTISSVQAEDLAVYYCQQHYTTPLTFGAGTKLEIKR",IC50 (read off the curve),[18],~8 nM
same,IC50 (read off the curve),[1],~4 nM
same,IC50 (read off the curve),[2],~4 nM
